Data taken from article PMC3909815 (Molecular imaging and biology : MIB : the official …, 2012).

How the values were obtained:
mice = assay: Toxicity of pHe marker in mice; format: in vivo, mouse; conditions: 7 mmol/kg i.p.
LNCaP tumour = assay: Biodistribution/pHe modulation study; format: in vivo, mouse; conditions: 24 h p.i., bicarbonate per os 5 days, P=0.020, 95% CI 10%, 42%
[1] = 60 min p.i., i.v., mean±SD of 2 independent studies
[2] = Biodistribution of 99mTc-AH114567 in tumoured mice
PC-3 tumour = assay: Biodistribution/pHe modulation study; format: in vivo, mouse; conditions: PC-3, 24 h p.i., bicarbonate per os 5 days; P=0.053; 95% CI 0%, 51%
[3] = Radiochemical purity of the preparation over time; format: physicochemical; conditions: measured ≈24 h p.i., preparation used for SPECT imaging

For `CCOP(=O)(OCC)C1(C)CCCN1` (stereo not shown), which toxicity for mice (mice) is on record?
The toxicity for mice was “toxic”.

Which “tumour uptake ratio (uptake difference with bicarbonate relative to standard)” value (LNCaP tumour) does the source give for “ACEQNPIY{WARYADWLFTTPLLLLDLALLV}DADEGTG [99mTc-AH114567]” here?
Its value is 29%.

And the “integrated radio-HPLC signal of the parent compound in rat plasma” value [1]?
Its value is 86±6%.

What about the “lung/blood uptake ratio at 4 h p.i.” value ([2]; 4 h p.i.) of the same compound?
The value was “≈ 2”.

What about the “lung/blood uptake ratio at 24 h p.i.” value ([2]; 24 h p.i.) of the same compound?
The value was “ca. 1”.

And the “kidney uptake at 24 h p.i.” value ([2]; 24 h p.i., C57BL/6 mice)?
The value was about 3 % ID.

And the “blood uptake at 24 h p.i.” value ([2]; 24 h p.i., all three models)?
The value was 1 to 2 % ID/g.

And the “lung/blood uptake ratio, initial” value ([2]; initially)?
Its value is “≈ 3”.

And the uptake in liver ([2]; over the first 24 h p.i., liver+gall bladder, LLC tumoured C57BL/6 mice)?
The uptake in liver was 25 to 15 % ID.

And the skin uptake ([2]; range over time points)?
The skin uptake was 3 to 8 % ID.

And the uptake in bone ([2]; typically)?
Its uptake in bone is 2 to 3 % ID.

And the “tumour uptake ratio (uptake difference with bicarbonate relative to standard)” value (PC-3 tumour)?
Its value is 29%.

And the “radiochemical purity (RCP) of the preparation” value [3]?
Its value is at least 85%.
